Data from US20130157959.

Target: in vitro translated 35S-labelled p53 (wild-type) (UniProt P04637)

Substance: GST-Hades RING-mutant peptide (C302S/C305S)
- in vitro ubiquitination of p53 with E1, E2 (UbcH5c) and His-ubiquitin, anti-p53 immunoblot: The p53 ubiquitination was only induce by Hades
